Measured values published in the nanobody polyreactivity screen of Harvey et al. (2022).

Test: yeast display, Sf9 membrane polyspecificity reagent, FACS + sequencing; frameworks hold sequencing errors
Method in brief: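 Galactose-induced (36–48 hours) yeast carrying a synthetic nanobody display library were exposed to 10% biotinylated, detergent-solubilized Sf9 membrane reagent at 4 °C for 1 hour. FACS followed streptavidin microbead enrichment, using low and high (top ~1%) gates for expression (anti-HA) and reagent binding (streptavidin). Colony PCR, MiSeq 2 × 250 sequencing and CDR-length filtering followed. Labels for polyreactivity reflect the gate of origin.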

| Sequence | polyreactivity (PSR sort gate) |
| --- | --- |
| QVQLVESGGGLVQAGGSLGLSCAASGIIFGKYAMGWYRQAPGKERELVASITVDGGTTYYADSVKGLFTISRDNANNTVYLQMNSLKPEDTAVYYCATGVFAELWFDYWPYDYWGQGTQVTVSS | high polyreactivity |
| QVQLVESGGGLVQAGGSLGLSCAASGITFYTYPMGLYRQAPGKERELVAAISRRGGSTYYADSVKGRFTISRDNAKNTVYLHLNSLKPEDTAVYYCNAVADCYSGFDGYYYWGQGTQVTVSS | high polyreactivity |
| QVQLVESGGGLVQAGGSLGLSCAASGRIFARYAMGWYRQAPGKERELVAAITKSVGSTYYADSVKGRFTISRDNAKNTVYLQMNIMKPEDTAVYYCAARYRGGYYFGYETYYYWGQGTQVTVSS | high polyreactivity |
| QVQLVESGGGLVQAGGSLGLSCAASGRTFGYYAMGWYRQAPGTERALVAAIRSTGSTNYADSVKGRFTISRDNAKNTVYLQMNSLIPEDTAVYYCYAKRRFRYDYWGQGTQVTVSS | low polyreactivity |
| QVQLVESGGGLVQAGGSLGLSCAASGSTFAEYAMGWYRQAPGKERELVAVISFGDGNTYYADSVKGRVTISRDNAKNTVYLQMNSLKPEDTAVYYCNAADDSVDQSVRTLRQYEYWGQGTQVTVSS | low polyreactivity |
| QVQLVESGGGLVQAGGSLGLSCAASGSTLSAYVMGWYRQAPGKEREFVAAITWSGGNTYYADSVKGRFTISRDNAKHTVYLQMNSLKPEDTAVYFCARRGYRQSGDYWGQGTQVTVSS | low polyreactivity |
| QVQLVESGGGLVQAGGSLHLSCAASGSIFPYNLMGWYRQAPGKERELVAAISNTGSTNYADSVKGRFTISRDNAMNTVYFQMNSLKPDDTAVYYCNADGSYGFWSLLDYDYWGQGTQVTVSS | low polyreactivity |
| QVQLVESGGGLVQAGGSLLFSCAASGHIFRTYAMGWYRQAPGKERELVAAINIGGTTDYADSVKGRFTISRDNAKNTVYLQMNSLKPEDTAVYYCNAYNRFWEYVYWGQGTQVTVSS | low polyreactivity |
| QVQLVESGGGLVQAGGSLLLICAASGITFWSYAMGWYRQAPGKERELVAAISSTGSTNYADSVKGRFTISRDNAKNTVYLQMNSLKPEDTAVYYCAAEYTFWWSRTGKYYYWGQGTQVTVSS | high polyreactivity |
| QVQLVESGGGLVQAGGSLLLSCAASGFTFDYYAMGWYRQAPGKERELVAAITWSGGSTYYADSVKGRFTISRDNAKNTVYLQMNSLKPEDTAVYYCNAYYYHLYRGSTSYDYWGQGTQVTVSS | low polyreactivity |
| QVQLVESGGGLVQAGGSLLLSCAASGFTFGFNAMGWYRQAPGQERELGAAISRGGSTNYADSVKGRFTISRDNAKNTVYVQMNSLKPEDTAVYDCAADFITYVFRFYYWGQGTLVTVSS | low polyreactivity |
| QVQLVESGGGLVQAGGSLLLSCAASGFTFSYYAMGWYRQAPGKERDLVAAISWDGDSTYYADSVKGRFTISRDNAKNTVYLQMNSLKPEDTAVYYSAAEFSYYWDGYDYWGQGTQVTVSS | high polyreactivity |
| QVQLVESGGGLVQAGGSLLLSCAASGFTFTVYAMGWYILAPGKERELVAAISWNGGSTYYADSVKGRFTISRDNAKNTVYLQMNSLKPEDTAVYYCNTLQPYLYDYWGQGTQVTVSS | high polyreactivity |
| QVQLVESGGGLVQAGGSLLLSCAASGFTLPSYAMGWYIQAPGKERELVAAISSTGRTYYADSVKGRFTISRDNAKNTVYLQMNSLKPEDTAVYYCAARQDTWDAYLSTGEFDYWGQGTQVTVSS | high polyreactivity |
| QVQLVESGGGLVQAGGSLLLSCAASGGTFRVYAMGSYRQAPVKERELVAAITWRGGRTYYGDSVKGRFTISRDHAKNTVYLQMKRVKPEDTAVYFCAADRYGDLYDYWGQGTQVTVSS | high polyreactivity |
| QVQLVESGGGLVQAGGSLLLSCAASGIIFRYYAMGWYRQAPGKERELVADISSDGGTYYADSVKGRFTISLDNATNTVYLQMNSLKPEDTAVDYCAADYQFYWHYYYWGQGTQVTVSS | high polyreactivity |
| QVQLVESGGGLVQAGGSLLLSCAASGLTFVANAMGWYSQAPGKERELVARISSSGGSTYYADSVKGRFTISRDNAKNTVYLQMNSLKPEDTAVYYCTARAVRWYYSMNYWGQGTQVTVSS | high polyreactivity |
